Laboratory results published in patent publication US20240287161A1 (NATIONAL UNIVERSITY CORPORATION TOTTORI UNIVERSITY, published 2024).

Experiments:
[1] = biological target: T1, SARS-CoV2 S protein on VSV pseudovirus (SARS-CoV-2, UniProt P0DTC2 14-1273); experiment: cell-based or functional assay
[2] = biological target: T1, SARS-CoV2 S protein on VSV pseudovirus; experiment: cell-based or functional assay; remark: listed apart in the source
[3] = biological target: T2, Authentic CoV2 (SARS-CoV-2 JPN/TY/WK-521); experiment: cell-based or functional assay
[4] = biological target: T2, Authentic CoV2; experiment: cell-based or functional assay; remark: listed apart in the source
[5] = biological target: SARS-CoV1 recombinant S protein RBD region, 9x His tag (Example 1) (SARS-CoV1, UniProt P59594 306-527); experiment: ELISA on RBD-coated plate (FIG. 3)
[6] = biological target: MERS-CoV recombinant S protein RBD region, 9x His tag (Example 1) (MERS-CoV, UniProt K9N5Q8 367-606); experiment: ELISA on RBD-coated plate (FIG. 3)
[7] = biological target: SARS-CoV-2 spike receptor-binding domain (RBD, amino acids 322 to 536), histidine-tagged (Example 2) (SARS-CoV-2, UniProt P0DTC2 322-536)
[8] = biological target: T3, SARS-CoV1 spike protein on VSV pseudovirus (SARS-CoV-1, UniProt P59594 14-1255); experiment: cell-based or functional assay
[9] = biological target: T3, SARS-CoV1 spike protein on VSV …; experiment: cell-based or functional assay; remark: listed apart in the source

Row | Binder | IC50, pseudovirus neutralization [NT-108] [2] [µg/mL] | IC50, authentic virus neutralization [NT-108] [3] [µg/mL] | IC50, pseudovirus neutralization [NT-193] [2] [µg/mL] | IC50, authentic virus neutralization [NT-193] [3] [µg/mL] | further results
1 | NT-108 (recombinant human IgG1/kappa antibody) (antibody, V domains shown) VH: EVQLQQSGPGLVKPSQTLSLTCSISGDSVSSNSAAWNWIRQSPSRGLEWLGRTYYRSKWYNDYAGTVKSRIAINPDTSKNQFSLHLNSVTPEDTAVYFCARVISVAGYAFDIWGQGTMVTVSS VL: EIVLTQSPGTLSLSPGERATLSCRASQSVSSTFLAWYQQKPGQAPRLLIYGASYMATGIPDRFSGSGSGTDFTLTISRLEPEDFAVYYCQQYGSSLTFGGGTKLEIK | 0.0057 | 0.116 |  |  | IC50, pseudovirus neutralization [1]: 0.0061 µg/mL; IC50, authentic virus neutralization [4]: 0.0403 µg/mL; binding result [5]: no binding; binding result [6]: no binding; EC50 [7]: 0.455 µg/mL
2 | NT-108, human IgG4 subclass (antibody, V domains shown) VH: EVQLQQSGPGLVKPSQTLSLTCSISGDSVSSNSAAWNWIRQSPSRGLEWLGRTYYRSKWYNDYAGTVKSRIAINPDTSKNQFSLHLNSVTPEDTAVYFCARVISVAGYAFDIWGQGTMVTVSS VL: EIVLTQSPGTLSLSPGERATLSCRASQSVSSTFLAWYQQKPGQAPRLLIYGASYMATGIPDRFSGSGSGTDFTLTISRLEPEDFAVYYCQQYGSSLTFGGGTKLEIK | 0.0031 | 0.116 |  |  | 
3 | NT-108, human IgG3 subclass (antibody, V domains shown) VH: EVQLQQSGPGLVKPSQTLSLTCSISGDSVSSNSAAWNWIRQSPSRGLEWLGRTYYRSKWYNDYAGTVKSRIAINPDTSKNQFSLHLNSVTPEDTAVYFCARVISVAGYAFDIWGQGTMVTVSS VL: EIVLTQSPGTLSLSPGERATLSCRASQSVSSTFLAWYQQKPGQAPRLLIYGASYMATGIPDRFSGSGSGTDFTLTISRLEPEDFAVYYCQQYGSSLTFGGGTKLEIK | 0.001 | 0.049 |  |  | 
4 | NT-108, human IgG2 subclass (antibody, V domains shown) VH: EVQLQQSGPGLVKPSQTLSLTCSISGDSVSSNSAAWNWIRQSPSRGLEWLGRTYYRSKWYNDYAGTVKSRIAINPDTSKNQFSLHLNSVTPEDTAVYFCARVISVAGYAFDIWGQGTMVTVSS VL: EIVLTQSPGTLSLSPGERATLSCRASQSVSSTFLAWYQQKPGQAPRLLIYGASYMATGIPDRFSGSGSGTDFTLTISRLEPEDFAVYYCQQYGSSLTFGGGTKLEIK | 0.002 | 0.101 |  |  | 
5 | NT-193 (recombinant human IgG1/kappa antibody) (antibody, V domains shown) VH: EVQLQQWGAGLLKPSETLSLTCAVYGGSFSGYYWSWIRQPPGKGLEWIGEINHSGSTNYNPSLKSRVTISVDTSKNQFSLKLSSVTAADTAVYYCARGWDLDYYYGMDVWGQGTTVTVSS VL: DIRMTQSPSAMSASVGDRVTVTCRASQGIGNYLAWFQLKPGKVPKRLIYAASSLQSGVPARFSGGGSGTEFTLTISSLQPEDFATYYCLQHGFLPWTFGQGTKLEIK |  |  | 0.0111 | 0.241 | IC50, pseudovirus neutralization [1]: 0.0209 µg/mL; IC50 of the neutralizing activity against SARS-CoV (pseudovirus) [8]: 0.013 µg/mL; IC50, authentic virus neutralization [4]: 0.0851 µg/mL; IC50, pseudovirus neutralization [9]: 0.0061 µg/mL
6 | NT-193, human IgG4 subclass (antibody, V domains shown) VH: EVQLQQWGAGLLKPSETLSLTCAVYGGSFSGYYWSWIRQPPGKGLEWIGEINHSGSTNYNPSLKSRVTISVDTSKNQFSLKLSSVTAADTAVYYCARGWDLDYYYGMDVWGQGTTVTVSS VL: DIRMTQSPSAMSASVGDRVTVTCRASQGIGNYLAWFQLKPGKVPKRLIYAASSLQSGVPARFSGGGSGTEFTLTISSLQPEDFATYYCLQHGFLPWTFGQGTKLEIK |  |  | 0.0044 | 0.247 | 
7 | NT-193, human IgG3 subclass (antibody, V domains shown) VH: EVQLQQWGAGLLKPSETLSLTCAVYGGSFSGYYWSWIRQPPGKGLEWIGEINHSGSTNYNPSLKSRVTISVDTSKNQFSLKLSSVTAADTAVYYCARGWDLDYYYGMDVWGQGTTVTVSS VL: DIRMTQSPSAMSASVGDRVTVTCRASQGIGNYLAWFQLKPGKVPKRLIYAASSLQSGVPARFSGGGSGTEFTLTISSLQPEDFATYYCLQHGFLPWTFGQGTKLEIK |  |  | 0.001 | 0.127 | 
8 | NT-193, human IgG2 subclass (antibody, V domains shown) VH: EVQLQQWGAGLLKPSETLSLTCAVYGGSFSGYYWSWIRQPPGKGLEWIGEINHSGSTNYNPSLKSRVTISVDTSKNQFSLKLSSVTAADTAVYYCARGWDLDYYYGMDVWGQGTTVTVSS VL: DIRMTQSPSAMSASVGDRVTVTCRASQGIGNYLAWFQLKPGKVPKRLIYAASSLQSGVPARFSGGGSGTEFTLTISSLQPEDFATYYCLQHGFLPWTFGQGTKLEIK |  |  | 0.0065 | 0.212 | 
